Measured values taken from PMC3399781 (Structure (London, England : 1993), 2010).

Biological target: the molecule itself
Assay: AUC

B1: 2GS mGRFT (GRFT with GSGS inserted between Ser16 and Gly17) (natural protein)
chain: SLTHRKFGGSGGSPFSGSGSGLSSIAVRSGSYLDAIIIDGVHHGGSGGNLSPTFTFGSGEYISNMTIRSGDYIDNISFETNMGRRFGPYGGSGGSANTLSNVKVIQINGSAGDYLDSLDIYYEQY
Kd: 1170 µM
